Columns and labels:
Assay in all cases: EMSA; 6 mM MgCl2; EMSA: 10 mM Tris-HCl pH 7.5, 6 mM MgCl2, 100 mM NaCl, 10% glycerol, 0.1% NP-40; 10 nM DNA, 0-1000 nM protein, 1 h at room temperature; 6% native PAGE
Conditions in all cases: protein: recombinant; tags: 6xHis-SUMO, cleaved off; label: 5'-6-FAM on primer; 22 bp; 5' overhang 18 nt on template; 5' overhang 3 nt (TTT) on primer
[1] = biological target: T1, DNA polymerase theta polymerase domain (PolQM1), WT (Homo sapiens, UniProt O75417 1792-2590)
T1 sequence: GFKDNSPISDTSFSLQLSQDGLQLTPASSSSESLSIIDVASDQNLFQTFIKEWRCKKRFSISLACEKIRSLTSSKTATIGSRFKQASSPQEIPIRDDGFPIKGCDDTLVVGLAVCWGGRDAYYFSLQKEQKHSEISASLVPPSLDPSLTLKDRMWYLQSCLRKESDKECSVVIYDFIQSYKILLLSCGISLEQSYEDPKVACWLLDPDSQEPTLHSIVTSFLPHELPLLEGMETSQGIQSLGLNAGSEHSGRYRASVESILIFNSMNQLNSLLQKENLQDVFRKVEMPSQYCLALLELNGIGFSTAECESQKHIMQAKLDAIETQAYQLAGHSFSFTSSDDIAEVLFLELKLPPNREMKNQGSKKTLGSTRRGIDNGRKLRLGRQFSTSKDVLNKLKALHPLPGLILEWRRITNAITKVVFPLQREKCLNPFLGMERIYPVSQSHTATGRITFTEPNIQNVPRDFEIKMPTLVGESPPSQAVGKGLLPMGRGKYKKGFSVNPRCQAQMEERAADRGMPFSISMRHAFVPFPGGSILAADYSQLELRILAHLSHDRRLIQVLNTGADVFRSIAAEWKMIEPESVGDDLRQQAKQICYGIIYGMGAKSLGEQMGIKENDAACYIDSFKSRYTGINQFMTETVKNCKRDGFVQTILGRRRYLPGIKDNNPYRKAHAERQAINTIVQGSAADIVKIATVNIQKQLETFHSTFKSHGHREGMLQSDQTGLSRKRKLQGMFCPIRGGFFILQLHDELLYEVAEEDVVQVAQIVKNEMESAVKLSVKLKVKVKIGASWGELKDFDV

[2] = biological target: T2, DNA polymerase theta polymerase domain (PolQM1), E2406K (Homo sapiens, UniProt O75417 1792-2590, E2406K)
T2 sequence: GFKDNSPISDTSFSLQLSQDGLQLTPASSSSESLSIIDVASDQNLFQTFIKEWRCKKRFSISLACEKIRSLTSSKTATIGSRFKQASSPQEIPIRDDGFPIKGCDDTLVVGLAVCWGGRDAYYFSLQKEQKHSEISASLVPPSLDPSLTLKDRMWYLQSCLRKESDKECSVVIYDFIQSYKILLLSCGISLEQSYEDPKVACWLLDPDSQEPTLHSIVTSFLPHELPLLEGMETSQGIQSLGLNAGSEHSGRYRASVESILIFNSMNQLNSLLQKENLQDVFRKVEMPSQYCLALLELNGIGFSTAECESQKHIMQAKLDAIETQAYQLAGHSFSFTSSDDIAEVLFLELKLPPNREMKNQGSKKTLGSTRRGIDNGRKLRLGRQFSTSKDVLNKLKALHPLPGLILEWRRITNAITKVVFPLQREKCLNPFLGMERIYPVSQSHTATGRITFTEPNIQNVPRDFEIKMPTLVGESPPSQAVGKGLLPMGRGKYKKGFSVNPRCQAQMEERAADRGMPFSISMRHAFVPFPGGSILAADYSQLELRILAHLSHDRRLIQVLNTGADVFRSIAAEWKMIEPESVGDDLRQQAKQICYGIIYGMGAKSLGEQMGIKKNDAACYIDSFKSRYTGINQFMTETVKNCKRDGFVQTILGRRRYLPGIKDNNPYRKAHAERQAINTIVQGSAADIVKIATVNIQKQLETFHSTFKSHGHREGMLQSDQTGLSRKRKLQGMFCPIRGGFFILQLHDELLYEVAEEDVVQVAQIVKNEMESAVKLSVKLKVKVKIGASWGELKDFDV

[3] = biological target: T3, DNA polymerase theta polymerase domain (PolQM1), T2161I (Homo sapiens, UniProt O75417 1792-2590, T2161I)
T3 sequence: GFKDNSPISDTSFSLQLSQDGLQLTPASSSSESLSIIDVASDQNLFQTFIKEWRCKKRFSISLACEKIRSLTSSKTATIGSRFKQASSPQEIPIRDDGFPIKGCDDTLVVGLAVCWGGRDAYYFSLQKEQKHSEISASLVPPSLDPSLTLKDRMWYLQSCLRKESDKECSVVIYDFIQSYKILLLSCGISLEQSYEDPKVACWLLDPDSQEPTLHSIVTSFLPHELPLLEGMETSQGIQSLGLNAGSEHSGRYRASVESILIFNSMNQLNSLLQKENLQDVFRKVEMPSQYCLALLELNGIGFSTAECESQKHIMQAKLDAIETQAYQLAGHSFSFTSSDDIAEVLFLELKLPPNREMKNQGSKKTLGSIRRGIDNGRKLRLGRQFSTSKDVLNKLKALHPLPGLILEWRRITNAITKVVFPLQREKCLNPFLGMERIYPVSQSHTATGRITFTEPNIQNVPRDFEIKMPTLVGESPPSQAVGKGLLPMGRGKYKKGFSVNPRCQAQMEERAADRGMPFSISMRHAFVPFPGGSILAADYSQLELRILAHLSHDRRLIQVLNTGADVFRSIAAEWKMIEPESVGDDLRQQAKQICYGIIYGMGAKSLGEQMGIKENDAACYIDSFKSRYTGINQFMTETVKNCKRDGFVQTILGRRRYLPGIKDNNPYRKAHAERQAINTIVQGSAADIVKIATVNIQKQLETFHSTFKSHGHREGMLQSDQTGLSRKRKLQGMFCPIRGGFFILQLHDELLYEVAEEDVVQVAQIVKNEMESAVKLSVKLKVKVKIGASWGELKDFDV

[4] = biological target: T4, DNA polymerase theta polymerase domain (PolQM1), L2538R (Homo sapiens, UniProt O75417 1792-2590, L2538R)
T4 sequence: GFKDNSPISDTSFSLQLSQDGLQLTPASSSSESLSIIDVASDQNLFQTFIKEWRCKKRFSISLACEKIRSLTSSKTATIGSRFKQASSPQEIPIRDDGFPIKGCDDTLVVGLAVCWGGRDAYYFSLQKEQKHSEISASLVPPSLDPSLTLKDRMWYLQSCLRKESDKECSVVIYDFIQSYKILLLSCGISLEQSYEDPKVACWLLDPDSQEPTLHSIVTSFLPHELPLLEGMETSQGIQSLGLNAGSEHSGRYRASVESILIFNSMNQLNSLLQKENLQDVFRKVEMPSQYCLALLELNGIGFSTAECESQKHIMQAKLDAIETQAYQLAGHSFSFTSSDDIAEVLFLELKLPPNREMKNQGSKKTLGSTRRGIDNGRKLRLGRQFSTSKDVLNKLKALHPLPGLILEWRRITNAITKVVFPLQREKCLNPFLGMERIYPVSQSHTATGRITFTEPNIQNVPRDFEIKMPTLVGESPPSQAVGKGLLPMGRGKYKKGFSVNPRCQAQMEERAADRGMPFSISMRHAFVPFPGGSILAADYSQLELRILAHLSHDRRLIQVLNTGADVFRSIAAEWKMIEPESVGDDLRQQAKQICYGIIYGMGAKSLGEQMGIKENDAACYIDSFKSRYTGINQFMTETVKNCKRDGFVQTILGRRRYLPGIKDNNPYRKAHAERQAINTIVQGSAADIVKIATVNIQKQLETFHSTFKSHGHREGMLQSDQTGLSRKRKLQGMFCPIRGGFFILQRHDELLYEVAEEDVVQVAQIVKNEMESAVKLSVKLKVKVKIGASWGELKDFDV

B1: 25/40 primer-template duplex (CG template) (dsDNA)
DNA 1: TTTGCCTTGACCATGTAACAGAGAG
DNA 2: TCTCTTCTCTCACTCACGCTCTCTGTTACATGGTCAAGGC
What does the source list for B1?
Kd [1]: 18 ± 3 nM; Kd [2]: 14 ± 3 nM; Kd [3]: 13 ± 3 nM; Kd [4]: 18 ± 4 nM

From article PMC11080051, “Melanoma-Derived DNA Polymerase Theta Variants Exhibit Altered DNA Polymerase Activity”
